Measurements as given in publication PMC5426458, “A practical strategy to design and develop an isoform-specific fluorescent probe for a target enzyme: CYP1A1 as a case study” (Chemical Science, 2016).

What was measured:
CYP1A1 = target: T1, CYP1A1 (Homo sapiens, UniProt P04798); assay: inhibition of NBCeN-O-dechloroethylation in human tissue preparations and living cells ([…] in cells); assay type: cell-based
T1 construct: endogenous CYP1A1 in human tissue microsomes, A549 and SKOV3 cells
T1 sequence (P04798 1-512): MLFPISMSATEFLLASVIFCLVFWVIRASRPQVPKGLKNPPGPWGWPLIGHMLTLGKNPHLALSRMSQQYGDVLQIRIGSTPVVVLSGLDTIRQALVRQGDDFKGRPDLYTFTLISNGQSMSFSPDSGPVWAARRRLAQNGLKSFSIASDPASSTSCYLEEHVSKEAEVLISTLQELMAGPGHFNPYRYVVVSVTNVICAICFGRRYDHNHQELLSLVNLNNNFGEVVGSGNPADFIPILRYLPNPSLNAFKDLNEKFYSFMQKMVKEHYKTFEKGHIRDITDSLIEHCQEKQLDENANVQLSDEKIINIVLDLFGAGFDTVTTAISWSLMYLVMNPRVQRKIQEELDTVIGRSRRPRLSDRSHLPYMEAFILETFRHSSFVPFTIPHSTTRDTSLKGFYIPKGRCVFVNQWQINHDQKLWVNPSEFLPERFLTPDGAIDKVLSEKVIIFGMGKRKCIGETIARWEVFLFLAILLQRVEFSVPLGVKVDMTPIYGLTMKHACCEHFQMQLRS

purified protein = substrate: CCCCN1C(=O)c2cccc3c(OCCCl)ccc(c23)C1=O; assay: purified protein; assay type: biochemical, Homo sapiens; settings: heme

Oc1ccc(/C=C/c2cc(O)cc(O)c2)cc1 [resveratrol]
inhibition of NBCeN-O-dechloroethylation in human tissue preparations and living (CYP1A1): formation of NBHN could be potently inhibited by ABT (a broad CYP inhibitor) and resveratrol (a selective inhibitor of CYP1A1)

B1: CYP1A1 (Homo sapiens) (protein)
chain: T1 sequence (P04798 1-512)
notes: recombinant CYP1A1
Km (purified protein; NADPH active site, O-chloroethyl group cleaved, docking suggests pi-pi stacking with Phe-224): 0.84 µM

B2: CYP1A2 (Homo sapiens) (protein)
chain: ALSQSVPFSATELLLASAIFCLVFWVLKGLRPRVPKGLKSPPEPWGWPLLGHVLTLGKNPHLALSRMSQRYGDVLQIRIGSTPVLVLSRLDTIRQALVRQGDDFKGRPDLYTSTLITDGQSLTFSTDSGPVWAARRRLAQNALNTFSIASDPASSSSCYLEEHVSKEAKALISRLQELMAGPGHFDPYNQVVVSVANVIGAMCFGQHFPESSDEMLSLVKNTHEFVETASSGNPLDFFPILRYLPNPALQRFKAFNQRFLWFLQKTVQEHYQDFDKNSVRDITGALFKHSKKGPRASGNLIPQEKIVNLVNDIFGAGFDTVTTAISWSLMYLVTKPEIQRKIQKELDTVIGRERRPRLSDRPQLPYLEAFILETFRHSSFLPFTIPHSTTRDTTLNGFYIPKKCCVFVNQWQVNHDPELWEDPSEFRPERFLTADGTAINKPLSEKMMLFGMGKRRCIGEVLAKWEIFLFLAILLQQLEFSVPPGVKVDLTPIYGLTMKHARCEHVQARLRFSIN
notes: recombinant CYP1A2
Km (purified protein; NADPH): 0.81 µM
